Data on 1 molecule can be found in patent publication US20230235080A1, “TROPHOBLAST CELL-SURFACE ANTIGEN-2 (TROP-2) ANTIBODIES” (Bionecure Therapeutics, Inc., priority 2020, published 2023).

In test [1] the target is T1, human Trop-2-ECD-6His fusion protein (human, UniProt P09758 27-274).
T1 construct: Expressed in a human 293 cell line; also called huTrop-2; human Trop-2 antigen
T1 sequence: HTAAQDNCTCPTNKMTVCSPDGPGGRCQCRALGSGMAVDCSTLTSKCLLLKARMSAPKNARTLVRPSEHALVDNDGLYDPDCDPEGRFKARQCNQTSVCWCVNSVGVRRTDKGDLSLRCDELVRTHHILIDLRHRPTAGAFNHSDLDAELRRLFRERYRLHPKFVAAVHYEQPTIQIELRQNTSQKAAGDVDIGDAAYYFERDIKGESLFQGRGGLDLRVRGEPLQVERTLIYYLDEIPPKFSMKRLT
Description: BLI (Octet), antibody at 8 ug/ml, human Trop-2ECD-6His at 3.125-50 nM. On the procedure:
The binding affinity of the purified anti-Trop-2 IgGs to human Trop-2 protein were determined by Octet system based on Bio-Layer Interferometry (BLI) technique. BLI is a layer of molecules attached to the tip of an optic fiber which creates an interference pattern at the detector, any change in the number of molecules bound causes a measured shift in the pattern. Octet system enables real-time analysis for determination of affinity and kinetics from biomolecular interactions in 96-well microplates. […] A1X4 or A1,2X4 antibody was diluted and added to the assigned wells at a final concentration 8 µg/ml. The plate was put in the Octet system and assay was started. The data was analyzed using the Octet Data Acquisition Software (fortebio data analysis 10.0) to calculate an association rate constant Kon, a dissociation rate constant Koff, and a dissociation constant Kd (Kd = Koff/Kon).
(BLI is a label-free optical method that tracks binding on a fibre tip over time.)

In the next test the target is T2, mouse Trop-2-His (mouse, UniProt Q8BGV3 25-270).
T2 sequence (looked up): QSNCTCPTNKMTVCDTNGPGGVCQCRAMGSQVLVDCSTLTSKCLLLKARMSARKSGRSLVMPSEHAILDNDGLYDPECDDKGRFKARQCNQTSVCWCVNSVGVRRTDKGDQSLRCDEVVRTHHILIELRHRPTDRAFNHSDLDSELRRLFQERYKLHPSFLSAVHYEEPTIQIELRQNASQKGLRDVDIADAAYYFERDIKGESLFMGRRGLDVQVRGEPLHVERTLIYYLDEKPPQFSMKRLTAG
The test is described as follows: ELISA on coated antigen, one antibody dilution (concentration not given), detected by GAH-HRP, OD450nm. On the procedure: (§1) The cross-reactivity of purified IgGs to the Trop-2 antigens from different species was tested by ELISA. In this experiment, a microtiter plate was coated overnight at 4° C. with 50 µL/well of 1 µg/mL human Trop-2ECD-6His, mouse Trop-2-His, cynomolgus Trop-2-His, human EPCAM-His, and a non-related protein. The plate was washed and blocked for 1 hr at 37° C., and then washed with wash buffer. Purified anti-Trop-2 antibodies appropriately diluted in PBS were added to wells and incubated for 1 hour at 37° C. After washing, bound antibodies were detected using HRP-conjugated goat-anti-human IgG antibody. Color development and absorbance at OD450 nm were read. A non-specific human IgG1 was included as a negative control, while hRS7 was used as a positive control.

The next test concerns the target T3, human EPCAM-His (human, UniProt P16422 24-265).
T3 construct: also called hEPCAM
T3 sequence (looked up): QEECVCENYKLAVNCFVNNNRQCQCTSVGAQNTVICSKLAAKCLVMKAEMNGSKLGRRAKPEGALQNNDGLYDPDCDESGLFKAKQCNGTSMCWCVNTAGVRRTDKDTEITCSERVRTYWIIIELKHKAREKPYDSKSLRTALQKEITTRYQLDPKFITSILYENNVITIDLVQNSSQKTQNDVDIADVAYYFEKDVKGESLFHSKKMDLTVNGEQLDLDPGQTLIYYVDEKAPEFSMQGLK
The description is as above. Here is the method:
as §1

Test [2] deals with T4, human Trop-2 on Trop-2 positive cancer cells (human, UniProt P09758 27-323).
T4 construct: Endogenous Trop-2 of human tumour cell lines
T4 sequence (looked up): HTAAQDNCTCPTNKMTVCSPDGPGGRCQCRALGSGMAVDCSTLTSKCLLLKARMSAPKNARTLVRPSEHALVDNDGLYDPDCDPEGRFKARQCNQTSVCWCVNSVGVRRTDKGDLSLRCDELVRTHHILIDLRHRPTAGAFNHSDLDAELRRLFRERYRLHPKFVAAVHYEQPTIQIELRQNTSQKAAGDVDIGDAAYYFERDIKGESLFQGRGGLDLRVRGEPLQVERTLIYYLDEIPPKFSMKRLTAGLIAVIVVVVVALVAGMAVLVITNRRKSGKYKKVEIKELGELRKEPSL
The test is described as follows: flow cytometry on MDA-MB-468 cells, MFI at 4 °C against the antibody concentration (about 400 to 10000 ng/ml); Kd (µg/ml) printed beside the legend. On the procedure: Internalizationi and degradation of anti-Trop-2 antibodies was measured by flow cytometry. In this study, fluorescent-conjugated secondary antibodies were used to detect the primary antibodies left on after internalization.
Next, either hRS7, or A1X4, or A1,2X4 antibody was added to cells in FACS buffer at concentrations of 400, 1000, 3000, or 10000 ng/ml, respectively, and incubated for 30 minutes at 4° C. After incubation, the cells were washed three times with FACS buffer to removed unbound antibody. The cells were then incubated at 37° C. with 5% CO₂ for antibody internalization. After 2 hours, the cells were dissociated with Trypsin and stained with fluorescent-conjugated goat anti-human IgG secondary antibodies for 30 minutes on ice in dark before being analyzed using Beckman flow cytometry system. The fluorescent intensity and cell binding percentage at each time point were analyzed by Beckman flow cytometric software. The amount of anti-Trop-2 antibodies internalized into cells at each concentration was determined using the following formula: % internalization rate = 100 × (MFI₄°C- MFI₃₇°C) / MFI₄°C
Background: Flow cytometry measures light scatter and fluorescence of single cells or particles in a stream.

B1: humanized IgG A1,2X4 (antibody, V domains shown)
VH: QVQLQESGPGLVKPSETLSLTCTVSGFSLTSYGVNWIRQPPGKGLEWIGVMWAGGSTNYNSALMSRLTISKDTSKNQFSLKLSSVTAADTAVYYCARDENWDGAWFAYWGQGTLVTVSS
VL: DIVMTQSPDSLAVSLGERATINCKSSQSLLNSGTRKNYLAWYQQKPGQPPKLLISWASSRESGVPDRFSGSGSGTDFTLTISSLQAEDVAVYYCKQSYNLFTFGGGTKVEIKR
notes: Full-length IgG expressed in 293 cells; also called IgG HuA(1,2)/Lu(X4)
For the molecule B1, the Kd – broadly, the equilibrium constant for the complex coming apart – turned out to be 4.09 nM in test [1] and 0.93 µg/mL in test [2]. Besides, the koff (as a rule, the first-order rate constant of dissociation) in test [1] turned out to be 0.000844 s⁻¹. Also, the binding result with mouse Trop-2-His and in the test with human EPCAM-His was “no binding” throughout.
